Data as given in article PMC3892784 (mBio, 2013).
Residue numbers refer to the chain shown, from its start.

T1: T. maritima HK853 (T. maritima, UniProt Q9WZV7 232-489)
T1 sequence (looked up): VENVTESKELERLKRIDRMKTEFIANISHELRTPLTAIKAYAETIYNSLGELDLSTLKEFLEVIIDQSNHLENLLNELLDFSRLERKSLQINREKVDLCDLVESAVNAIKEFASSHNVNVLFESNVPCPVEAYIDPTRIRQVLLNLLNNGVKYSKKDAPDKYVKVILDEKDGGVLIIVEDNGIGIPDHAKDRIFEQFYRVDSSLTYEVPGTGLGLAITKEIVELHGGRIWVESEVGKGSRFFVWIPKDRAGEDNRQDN

T2: FrgB (Myxococcus xanthus (strain DZ2 genomic …, UniProt Q9RF10 1-510))
T2 sequence (looked up): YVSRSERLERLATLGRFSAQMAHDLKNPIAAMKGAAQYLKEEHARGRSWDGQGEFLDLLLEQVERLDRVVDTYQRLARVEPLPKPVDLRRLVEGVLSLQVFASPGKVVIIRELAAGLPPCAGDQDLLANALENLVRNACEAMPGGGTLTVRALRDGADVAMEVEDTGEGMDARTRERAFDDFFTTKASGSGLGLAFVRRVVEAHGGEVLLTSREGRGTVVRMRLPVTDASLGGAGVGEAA

T3: HK1190 (Myxococcus xanthus (strain DZ2 genomic …, UniProt Q1DD24 1-424))
T3 sequence (looked up): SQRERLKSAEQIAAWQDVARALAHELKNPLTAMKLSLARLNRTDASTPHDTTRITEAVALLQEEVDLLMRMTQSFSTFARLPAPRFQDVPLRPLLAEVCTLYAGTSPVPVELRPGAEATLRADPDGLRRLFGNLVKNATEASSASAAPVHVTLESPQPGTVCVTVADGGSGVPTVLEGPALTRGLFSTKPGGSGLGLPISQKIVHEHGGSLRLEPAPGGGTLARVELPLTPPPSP

T4: CrdA (Myxococcus xanthus (strain DZ2 genomic …, UniProt Q84I63 1-498))
T4 sequence (looked up): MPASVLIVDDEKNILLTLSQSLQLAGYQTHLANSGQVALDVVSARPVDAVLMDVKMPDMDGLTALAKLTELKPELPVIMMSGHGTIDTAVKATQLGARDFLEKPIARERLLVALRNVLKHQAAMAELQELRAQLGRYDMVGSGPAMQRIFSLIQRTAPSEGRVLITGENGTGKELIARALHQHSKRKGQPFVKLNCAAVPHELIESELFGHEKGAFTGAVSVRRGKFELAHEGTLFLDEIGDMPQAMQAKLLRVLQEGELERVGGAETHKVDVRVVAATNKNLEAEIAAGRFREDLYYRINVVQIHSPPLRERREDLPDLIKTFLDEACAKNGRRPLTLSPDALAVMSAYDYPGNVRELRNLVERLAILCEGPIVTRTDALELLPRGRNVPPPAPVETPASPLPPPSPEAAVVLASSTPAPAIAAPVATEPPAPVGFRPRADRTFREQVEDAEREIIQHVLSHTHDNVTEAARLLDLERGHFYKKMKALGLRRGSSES

B1: NtrC1189 (domain or fragment, UniProt Q1DD25 1-450, looked up)
chain: MKPGPRILIVDDDSGVLRALRGLLSDEGFTPVEARSAAEASQLLDAPEGPPAMMLLDLRMPGETGLELLARLPRPFPAPVVVLSGEASPAEAVQALRLGATDFVEKPPSPERLLTAVRNALALGS
B2: T. maritima RR468 (natural protein, UniProt Q9WYT9 1-122, looked up)
chain: MSKKVLLVDDSAVLRKIVSFNLKKEGYEVIEAENGQIALEKLSEFTPDLIVLDIMMPVMDGFTVLKKLQEKEEWKRIPVIVLTAKGGEEDESLALSLGARKVMRKPFSPSQFIEEVKHLLNE
B3: FrgC (domain or fragment, UniProt Q9RF09 1-466, looked up)
chain: MNESLRGTVLLVDDDPAVAKVLGALLTQAGLTTHAARDGQEALALLASKPVDVVVSDVRMPGMDGLQVLAEVARGWPDVPVILLTAHGTVPLAVEAMKAGAADFVLKPFDREEILFTVRKALLRAQG
B4: CrdS (domain or fragment)
chain: RLMASERIAAWQEVARRLAHEIKNPLTPIRMSLETLQAAQEAKHPRFQDMFKESAGVVLEEVDRLRRIVDEFSHFARMPKPQLAPVDLGELAQSVLALYATPPTGIQILPTLQTGVVARVDRDQLTQVLVNLVKNAEEAMASTGGTLRVRVRSTEADAIVEVEDSGPGIPLEHRARIFEPYFTTKDGGTGLGLAIASRILQEHGGKLEVGGEPGHGARFSLVLPRAA
B5: CrdS6 (domain or fragment)
chain: B4 chain with P28A, M31L, E34A, T35R

Key:
[1] = target: CrdS6 (Myxococcus xanthus (strain DZ2 genomic DNA)); test: other fluorescence titration
[2] = target: T. maritima HK853 (T. maritima) (UniProt Q9WZV7); test: ITC
[3] = target: FrgB (Myxococcus xanthus (strain DZ2 genomic DNA)) (UniProt Q9RF10); test: ITC
[4] = target: CrdS6 (Myxococcus xanthus (strain DZ2 genomic DNA)); test: ITC
T. maritima HK853 = target: T1, T. maritima HK853; test: ITC
FrgB = target: T2, FrgB; test: ITC
HK1190 = target: T3, HK1190; test: ITC
FrgC = target: B3; test: ITC
T. maritima RR468 = target: B2; test: ITC
CrdA [5] = target: T4, CrdA; test: ITC
NtrC1189 = target: B1; test: ITC
CrdA [6] = target: T4, CrdA; test: other fluorescence titration

Row | Kd (T. maritima HK853) [µM] | Kd (FrgB) [µM] | Kd (HK1190) [µM] | Kd (NtrC1189) [µM] | Molecule | further results
1 | – | – | – | – | CrdA (from UniProt Q84I63 1-498) (domain or fragment) | Kd [1]: > 200 µM; Kd [2]: > 75 µM; Kd [3]: > 75 µM; Kd [4]: > 75 µM
2 | > 55 | > 75 | 1.23 | – | B1 | –
3 | 1.16 | > 75 | > 55 | – | B2 | –
4 | > 55 | 1.23 | > 35 | – | B3 | –
5 | – | – | – | > 75 | B4 | Kd (FrgC): > 75 µM; Kd (T. maritima RR468): > 75 µM; Kd (CrdA [5]): 1.41 µM; Kd (CrdA [6]): 2.28 ± 0.66 µM
6 | – | – | – | 2.09 | B5 | –
